Key:
[1] = biological target: tagged POLE3-POLE4 complex (GST-Pole4/His-POLE3) (human) (UniProt Q9NR33); experiment: pull-down; as a2 but 300 mM NaCl
[2] = biological target: T1, GST-tagged POLE3 (human, UniProt Q9NRF9 1-147); experiment: pull-down; GST-tagged POLE3 or POLE4 (WT or mutant) on glutathione beads with His-tagged POLE4 or POLE3; 150 mM and 1 M NaCl (Figures S1A, S1B); salt of Figure 1C not told; conditions: both partners purified
T1 construct: DNA polymerase epsilon subunit POLE3, human, full length; cloned in pGEX 6P-1; also called GST-POLE3; source: E. coli BL21(DE3) pLysS, purified (glutathione-Sepharose 4B)
T1 sequence (looked up): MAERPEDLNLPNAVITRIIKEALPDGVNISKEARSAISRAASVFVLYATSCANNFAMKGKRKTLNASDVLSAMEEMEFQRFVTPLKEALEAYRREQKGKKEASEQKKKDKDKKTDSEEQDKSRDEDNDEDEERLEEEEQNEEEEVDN

[3] = biological target: T2, His-tagged POLE3 (human, UniProt Q9NRF9 1-147); experiment: as above; conditions: both partners purified
T2 construct: DNA polymerase epsilon subunit POLE3, human; cloned via Gateway into pDEST17; also called His-POLE3; source: E. coli BL21(DE3) pLysS, purified (Ni-NTA)
T2 sequence (looked up): T1 sequence (looked up)

“purified H3-H4 histones (H3.3 variant) (from UniProt P84243 1-136; P62805 1-103) (complex)” was tested, and the percent of the interaction at 150 mM NaCl [1] was 50%.

B1: His-tagged POLE4 (natural protein, human, UniProt Q9NR33 1-117, looked up)
chain: MAAAAAAGSGTPREEEGPAGEAAASQPQAPTSVPGARLSRLPLARVKALVKADPDVTLAGQEAIFILARAAELFVETIAKDAYCCAQQGKRKTLQRRDLDNAIEAVDEFAFLEGTLD
notes: DNA polymerase epsilon subunit POLE4, human; cloned via Gateway into pDEST17; also called His-POLE4; source: E. coli BL21(DE3) pLysS, purified (Ni-NTA)
B1: binds [2].

B2: GST-tagged POLE4 (natural protein, human, UniProt Q9NR33 1-117, looked up)
chain: B1 chain
notes: DNA polymerase epsilon subunit POLE4, human, full length; cloned in pGEX 6P-1; also called GST-POLE4; source: E. coli BL21(DE3) pLysS, purified (glutathione-Sepharose 4B)
B2: binds [3].

Reference: PMC6179962, “POLE3-POLE4 Is a Histone H3-H4 Chaperone that Maintains Chromatin Integrity during DNA Replication” (Molecular Cell, 2018)
